Consider 30 substances from patent US10774129B2, “Complexes of types of MHC class II that bind to collagen type II peptides and their use on diagnosis and treatment” (FRAUNHOFER-GESELLSCHAFT ZUR FÖRDERUNG DER ANGEWANDTEN …, priority 2011, dated 2020).

Square brackets hold non-standard residues; d marks the D form. Ends that are not written are not given here. Cit = NC(=O)NCCC[C@H](N)C(=O)O

Common to all, as to test: in vitro binding assay to recombinant MHC class II protein
The target of assay [1] is MHC class II of the HLA DRB1 0101 genotype (Homo sapiens, UniProt P01903+P01911, A100R/D57E/F55L/F60I/F76Y/I96L/L162R/M171V/P40L/Q125E/R42F/V115G/Y59C). Also on record: key: *0101: the listing of the allele in the column for the allele indicates binding; *0401: “0401” in the “Binds to 0401” column indicates binding of the peptide to MHC class II of the HLA DRB1 0401 genotype; *0404: the listing of the allele in the column for the allele indicates binding; *0405: the listing of the allele in the column for the allele indicates binding; *0408: the listing of the allele in the column for the allele indicates binding; *1001: the listing of the allele in the column for the allele indicates binding; “no” or no data indicates no binding to a protein of that genotype. An excerpt:
(§1) Binding of the peptides to recombinant MHC class II protein of various alleles has been confirmed in an in vitro binding assay and the results are shown in Tables 1, 2 and 3. In table 1, 2 and 3, the listing of the allele in the column for the allele indicates binding. Thus “0401” in the “Binds to 0401” column indicates binding of the peptide to MHC class II of the HLA DRB1 0401 genotype. “no” or no data indicates no binding to a protein of that genotype. Empty boxes indicate no binding or that binding has not been determined. In the tables it is also indicated if the peptide has a citrulline residue, where “yes” indicates the presence of a citrulline residue and “no” indicates the absence of a citrulline residue.

The target of assay [2] is MHC class II of the HLA DRB1 0401 genotype (Homo sapiens, UniProt P01903+P01911, A100K/A169T/F76Y/I96L/K127E/L162R/M171V/N62H/P40V/Q125Y/R42H/S133A/S149N/S66Y/V115G/V209L/W38E). Also on record: key to Binds to 0401: *0101: the listing of the allele in the column for the allele indicates binding; *0401: “0401” in the “Binds to 0401” column indicates binding of the peptide to MHC class II of the HLA DRB1 0401 genotype; *0404: the listing of the allele in the column for the allele indicates binding; *0405: the listing of the allele in the column for the allele indicates binding; *0408: the listing of the allele in the column for the allele indicates binding; *1001: the listing of the allele in the column for the allele indicates binding; “no” or no data indicates no binding to a protein of that genotype. The note with it: recombinant MHC class II, HLA DRB1 0401.
Source text: as §1
Thus for these peptides no binding to HLA-DR0401 was observed when citrulline was exchanged with the original amino acid arginine (Table 4). No binding of the citrullinated peptides was seen to HLA-DR 03 or 02 variants.

For assay [3], the target named is MHC class II of the HLA DRB1 0404 genotype (Homo sapiens, UniProt P01903+P01911, A100R/A169T/F76Y/I96L/K127E/L162R/M171V/N62H/P40V/Q125Y/R42H/S133A/S149N/S66Y/V209L/W38E). More on the design: key: *0101: the listing of the allele in the column for the allele indicates binding; *0401: “0401” in the “Binds to 0401” column indicates binding of the peptide to MHC class II of the HLA DRB1 0401 genotype; *0404: the listing of the allele in the column for the allele indicates binding; *0405: the listing of the allele in the column for the allele indicates binding; *0408: the listing of the allele in the column for the allele indicates binding; *1001: the listing of the allele in the column for the allele indicates binding; “no” or no data indicates no binding to a protein of that genotype.
Source text: as §1

Assay [4] deals with MHC class II of the HLA DRB1 0405 genotype (Homo sapiens, UniProt P01903+P01911, A100R/A169T/D86S/F76Y/I96L/K127E/L162R/M171V/N62H/P40V/Q125Y/R42H/S133A/S149N/S66Y/V115G/V209L/W38E). More on the design: key: *0101: the listing of the allele in the column for the allele indicates binding; *0401: “0401” in the “Binds to 0401” column indicates binding of the peptide to MHC class II of the HLA DRB1 0401 genotype; *0404: the listing of the allele in the column for the allele indicates binding; *0405: the listing of the allele in the column for the allele indicates binding; *0408: the listing of the allele in the column for the allele indicates binding; *1001: the listing of the allele in the column for the allele indicates binding; “no” or no data indicates no binding to a protein of that genotype.
Source text: as §1

For the substance “vimentin 13: human vimentin peptide, not citrullinated (YATRSSAVRLRSSVP; listed as Homo sapiens)”, in assay [1], the “Binds to 0101” value is “*0101”. Besides, the “Binds to 0401” value in assay [2] is recorded as “no”.

On to “vimentin 99: citrullinated human vimentin peptide (VTTST[Cit]TYSLGSAL[Cit]; listed as Homo sapiens)”, for which the “Binds to 0101” value in assay [1] is listed as “*0101”. The “Binds to 0401” value in assay [2] is given as “*0401”.

As to “vimentin 55: human vimentin peptide, not citrullinated (DVRQQYESVAAKNLQ; listed as Homo sapiens)”, the “Binds to 0101” value in assay [1] was “*0101”. Moreover, the “Binds to 0401” value in assay [2] is listed as “*0401”.

As for “vimentin 42: human vimentin peptide, not citrullinated (FRQDVDNASLARLDL; listed as Homo sapiens)”, the “Binds to 0101” value in assay [1] was “*0101”. Besides, in assay [3], the “Binds to 0404” value is reported as “no”. In addition, the “Binds to 0401” value in assay [2] is “*0401”.

In the case of “vimentin 71: human vimentin peptide, not citrullinated (FAVEAANYQDTIGRL; listed as Homo sapiens)”, the “Binds to 0401” value in assay [2] was “*0401”.

“vimentin 32: human vimentin peptide, not citrullinated (ELRRQVDQLTNDKAR; listed as Homo sapiens)”: the “Binds to 0101” value in assay [1] was “*0101”. Moreover, the “Binds to 0404” value in assay [3] was “*0404”.

Turning to “vimentin 95: citrullinated human vimentin peptide (Y[Cit][Cit]MFGGPGTAS[Cit]PS; listed as Homo sapiens)”, the “Binds to 0101” value in assay [1] is recorded as “*0101”. For the same substance, the “Binds to 0401” value in assay [2] was “*0401”.

On to “vimentin 16: human vimentin peptide, not citrullinated (GVRLLQDSVDFSLAD; listed as Homo sapiens)”, for which the “Binds to 0101” value in assay [1] is on record as “no”. For the same substance, the “Binds to 0401” value in assay [2] is recorded as “*0401”.

Turning to “vimentin 14: human vimentin peptide, not citrullinated (SAVRLRSSVPGVRLL; listed as Homo sapiens)”, in assay [3], the “Binds to 0404” value is recorded as “*0404”.

Take “vimentin 20: human vimentin peptide, not citrullinated (FKNTRTNEKVELQEL; listed as Homo sapiens)”: the “Binds to 0401” value in assay [2] is reported as “*0401”.

As to “type II collagen 195: human collagen type II peptide, not citrullinated (PGLQGMPGERGAAGI; listed as Homo sapiens)”, in assay [3], the “Binds to 0404” value was “*0404”. In assay [2], the “Binds to 0401” value is reported as “*0401”.

Regarding “vimentin 92: human vimentin peptide, not citrullinated (GQVINETSQHHDDLE; listed as Homo sapiens)”, the “Binds to 0404” value in assay [3] is on record as “*0404”.

In the case of “vimentin 59: human vimentin peptide, not citrullinated (YKSKFADLSEAANRN; listed as Homo sapiens)”, the “Binds to 0401” value in assay [2] was “*0401”.

For “type II collagen 272: human collagen type II peptide, not citrullinated (GHRGFTGLQGLPGPP; listed as Homo sapiens)”, the “Binds to 0405” value in assay [4] was “*0405”.

With “type II collagen 100: human collagen type II peptide, not citrullinated (PQGARGFPGTPGLPG; listed as Homo sapiens)”, the “Binds to 0404” value in assay [3] is recorded as “*0404”.

“type II collagen 178: human collagen type II peptide, not citrullinated (PSGFQGLPGPPGPPG; listed as Homo sapiens)”: the “Binds to 0405” value in assay [4] is “*0405”.

Take “vimentin 145: citrullinated human vimentin peptide (STEY[Cit][Cit]QVQSLTCEV; listed as Homo sapiens)”: the “Binds to 0401” value in assay [2] was “*0401”.

As to “vimentin 79: human vimentin peptide, not citrullinated (MALDIEIATYRKLLE; listed as Homo sapiens)”, the “Binds to 0101” value in assay [1] is listed as “*0101”. In assay [3], the “Binds to 0404” value was “*0404”. The “Binds to 0401” value in assay [2] is listed as “no”.

As for “vimentin 44: human vimentin peptide, not citrullinated (ARLDLERKVESLQEE; listed as Homo sapiens)”, the “Binds to 0404” value in assay [3] was “*0404”.

In the case of “vimentin 159: citrullinated human vimentin peptide (XKLLEGEESXISLPL; citrullinated; MOD_RES (1)..(1) Citrulline; MOD_RES (10)..(10) Citrulline; listed as Homo sapiens)”, the “Binds to 0404” value in assay [3] is recorded as “No”. The “Binds to 0401” value in assay [2] is recorded as “*0401”.

In the case of “vimentin 150: citrullinated human vimentin peptide (FAVEAANYQDTIG[Cit]L; listed as Homo sapiens)”, the “Binds to 0401” value in assay [2] is on record as “*0401”.

For the substance “vimentin 156: citrullinated human vimentin peptide (XEYQDLLNVKMALDI; citrullinated; MOD_RES (1)..(1) Citrulline; listed as Homo sapiens)”, the “Binds to 0101” value in assay [1] was “*0101”.

Regarding “type II collagen 166: human collagen type II peptide, not citrullinated (VMGFPGPKGANGEPG; listed as Homo sapiens)”, the “Binds to 0404” value in assay [3] is “*0404”.

Turning to “vimentin 132: citrullinated human vimentin peptide (F[Cit]QDVDNASLA[Cit]LDL; listed as Homo sapiens)”, the “Binds to 0101” value in assay [1] is given as “*0101”.

“type II collagen 257: human collagen type II peptide, not citrullinated (GDRGETGAVGAPGAP; listed as Homo sapiens)”: the “Binds to 0404” value in assay [3] is “*0404”.

For “type II collagen 137: human collagen type II peptide, not citrullinated (GEPGIAGFKGEQGPK; listed as Homo sapiens)”, in assay [1], the “Binds to 0101” value is “*0101”. The “Binds to 0404” value in assay [3] was “*0404”. For the same substance, in assay [2], the “Binds to 0401” value is recorded as “*0401”.

For “type II collagen 224: human collagen type II peptide, not citrullinated (GPPGATGFPGAAGRV; listed as Homo sapiens)”, in assay [3], the “Binds to 0404” value is recorded as “*0404”.

For “type II collagen 138: human collagen type II peptide, not citrullinated (AGFKGEQGPKGEPGP; listed as Homo sapiens)”, the “Binds to 0101” value in assay [1] is “*0101”. In addition, in assay [2], the “Binds to 0401” value is given as “*0401”.

Regarding “vimentin 27: human vimentin peptide, not citrullinated (LLAELEQLKGQGKSR; listed as Homo sapiens)”, the “Binds to 0101” value in assay [1] is given as “*0101”. Also, the “Binds to 0404” value in assay [3] is reported as “no”.

As for “vimentin 93: citrullinated human vimentin peptide (MST[Cit]SVSSSSY[Cit][Cit]MF; listed as Homo sapiens)”, the “Binds to 0101” value in assay [1] is recorded as “no”. In assay [3], the “Binds to 0404” value is listed as “*0404”. Besides, the “Binds to 0401” value in assay [2] is reported as “*0401”.
